Assay [1] addresses RSV prefusion F (preF), DS-Cav1 (Respiratory Syncytial Virus). Put plainly: BLI, IgG on anti-human IgG sensor, 100 nM antigen. For orientation: Biolayer interferometry detects binding as a change in optical thickness at a sensor tip.
The target in assay [2] is Respiratory Syncytial Virus fusion glycoprotein (RSV F) on RSV-A2 virus (Respiratory Syncytial Virus subtype A (RSV-A2)). Description: cell-based or functional assay.

B1: ADI-41210 (antibody, V domains shown)
VH: QVQLVQSGAEVKKPGASVKVSCKASGYTFNNYGISWVRQAPGQGLEWMGWISAYNGDIKYAQKFQGRVTVTTDTSTSTAYMELRSLRSDDTAVYYCARDTPVGGGTQTFDYWGQGTLVTVSS
VL: ETTLTQSPLSLPVTLGQPASISCRSSQSLVHSNGNTYLNWFQQRPGQSPRRLIYTVSNRDSGVPDRFSGSGSGTDFTLKISRVEAEDVGVYYCMQATHRPGTFGQGTKVEIK
Regarding B1, the dissociation constant Kd in assay [1] turned out to be 0.47 nM. Besides, the Neutralization IC50 (RSV subtype A) in assay [2] came to 0.1 µg/mL.

B2: ADI-36681 (antibody, V domains shown)
VH: EVQLVESGAEVKKPGESLKISCKASGYSFTRYWIGWVRQMPGKGLEWMGIIFPGDSDTRYCPSFEGQVTISADRSINTAYLQWSSLKASDSAMYYCVTLYTDYDYGAPDHWGQGTLVTVSS
VL: DIVLTQSPATLSVSPGERATLSCRASQSLSGDLAWYQQKPGQAPRLLIYATSTRATGIPARFSGSGSGAEFTLTISSLQSEDFAVYYCQQYYDWPLLTFGPGTKVEIK
B2: the Kd in assay [1] came to 1.2 nM. For the same molecule, the Neutralization IC50 (RSV subtype A) in assay [2] stood at 0.01 µg/mL.

B3: ADI-41188 (antibody, V domains shown)
VH: QVQLQQWGAGLLKSSETLSLTCAVYGGSFSGYYWSWIRQSPGKGLEWIGEINHSGSANYNPSLKNRVTISRDTSKNQFSLWLSSVTAADTAVYYCARTSRSPEPDNYYYYMDVWGRGTTVTVSS
VL: QSVLTQPPSVSGAPGQRVSISCTGSSSDIGAGYDVHWYQQFPGTAPKLLMYANNNRPSGVPDRFSGSRSGTSASLAITGLQAEDEADYYCQSYDSNLDVVVFGGGTKLTVL
B3: the dissociation constant Kd in assay [1] was 0.224 nM. For the same molecule, the Neutralization IC50 (RSV subtype A) in assay [2] was 0.15 µg/mL.

B4: ADI-41147 (antibody, V domains shown)
VH: EVQLVESGGGLVKPGGSLRLSCAASGFTLSGYYMSWVRQAPGKGLEWISYISGGSTYTNYADSVNGRFTISRDNAKNSLYLQMDSLRAEDTAVYYCARLEYGDYGPYYLGLWGRGTLVTVSS
VL: QSVLTQPPSVSGAPGQRVTISCTGTSSNIGAGYDVHWYQKLPGTAPKLLIYANNNRPSGVPDRFSGSKSGTSASLAITGLQAEDEADYYCQSYDTSLSAHYVFGTGTKLTVL
B4 had a Kd in assay [1] of 0.467 nM. Also, the Neutralization IC50 (RSV subtype A) in assay [2] was 0.06 µg/mL.

B5: ADI-41226 (antibody, V domains shown)
VH: EVQLVESGGGLVKPGGSLRLSCAASRFTFAGYYMSWIRQAPGKGLEWVSDISPSSTYTNYADSVKGRFTISRDNAGTSVSLQMDSLRADDTAVYYCARITPYGGSHYFDSWGQGTLVTVSS
VL: QPVLTQPPSVSGAPGQRVTISCTGSSSNIGAGYDLHWYQQLPGTAPKLLIYGNSNRPSGVPDRFSGSKSGTSASLAITGLQAEDEADYYCQSYDNSLSGFYVFGTGTKVTVL
In assay [1], B5 came in with a Kd of 0.82 nM. For the same molecule, the Neutralization IC50 (RSV subtype A) in assay [2] amounted to 0.15 µg/mL.

B6: ADI-41216 (antibody, V domains shown)
VH: EVQLVESGGGLVKPGESLRLSCAASGFRFSDHYMSWIRQAPGKGLEWISYISSSSSYIHYADSVTGRFTISRDNAKNSMYLQMNSLRAEDTAVYYCAREIGRSYYMDVWGKGTTVTVSS
VL: QSALIQPPSVSGAPGQRVTISCTGSSSNIGAGYDVHWYQQLPGTAPKLLIYGNNNRPSGVPDRFSASKSGISASLAITGVQTEDEADYYCQSYDRSLSEFYVFGSGTKVTVL
On to B6, for which the Kd in assay [1] was determined as 0.903 nM. Besides, the Neutralization IC50 (RSV subtype A) in assay [2] came to 0.19 µg/mL.

B7: ADI-41157 (antibody, V domains shown)
VH: EVQLVESGPGLVKPSETLSLTCTVSGGSISTYYWSWIRQPPGKGLEWIGYIYYTGSTNYNPSLKSRVTISLDTSKNQFSLKLSSVSAADTAFYYCARSPPVPGTRSWFDPWGQGTLVTVSS
VL: SPGLTQPQSAFGTPGQRVTISCFGSSSNIGRNHIYWYQQVPGTAPKLLIYRNNQRPSGVPDRFFGSKFGTSASLAISGVRSEDEADYFCAAWDDSLSGPVFGGGTKLTVL
Consider B7, for which, in assay [1], the Kd stood at 0.507 nM. In assay [2], this molecule displayed a Neutralization IC50 (RSV subtype A) of 0.22 µg/mL.

B8: ADI-41193 (antibody, V domains shown)
VH: EVQLVESGGGLVKPGMSLRLSCAASGFRFSDHYMNWIRQAPGKGLEWVSYISSSSTYTDYTDSVKGRFTISRDNSKNSVYLQMNSLRAEDTAIYYCARVAPIRHNGDYIDYWGQGTTVTVSS
VL: NFMLTQPPSASGTPGQRVTISCTGSSSNIGAGYDVHZYQQIPGTAPKLLIYGNNNRPSGVPDRFSGSKSGTSASLAITGLQTEDEADYYCQSYDRGLSGRVFGTGTKVTVL
In turn, B8 gave a Kd in assay [1] of 0.74 nM. The molecule also had a Neutralization IC50 (RSV subtype A) in assay [2] of 0.07 µg/mL.

B9: ADI-41206 (antibody, V domains shown)
VH: EVQLLESGGGLVKPGGSLRLSCAGSGFSFSSYSMNWVRQAPEKGLEWVSSISASSSFINYADSVKGRFIISRDNAKNSLFLQMDSLRAEDTAVYYCARDGVHPGGYIFGGYIDSWGQGTLVTVSS
VL: QSVLTQPPSVSGAPGQRVTISCTGSSSNIGAGYDVHWFRQLPGTAPKLLIYGNNNRPSGVPDRFSGSKSGSSASLIITGLQAQDEATYYCQSYDSSLSGYVFGTGTKLTVL
Molecule B9 registered a Kd in assay [1] of 0.409 nM. For the same molecule, the Neutralization IC50 (RSV subtype A) in assay [2] is 0.07 µg/mL.

B10: ADI-41180 (antibody, V domains shown)
VH: EVQLVQSGGGLVKPGGSLRLSCAASGFTFIDYYMSWIRQAPGKGLEWVSSISGGSTYTTYADSVKGRFTISRDNGKNSLYLQMDSLRAEDTAVYYCARLGGYSYYMDVWGKGTTVTVSS
VL: QPVLTQPPSVSGAPGQRVTISCTGSSSNIGAGYDVHWYQHLPGAAPKLLIYDNTNRPSGIPDRFSGSKSGTSASLAITGLQAEDEADYYCQSYDSSLDWVFGGGTKVTVL
In assay [1], B10 registered a Kd of 0.47 nM. The Neutralization IC50 (RSV subtype A) in assay [2] stood at 0.07 µg/mL.

B11: ADI-41217 (antibody, V domains shown)
VH: EVQLVQSGGGLVKPGGSLRLSCVASGFTFSSYSMNWVRQAPGKGLEWVSSISASSSYIDYADSVKGRFTISRDNDKKSLYLQMSSLRAEDTAVYYCAREDYDSLTGYYSPKRFDPWGQGTLVTVSS
VL: QSVLTQPPSLSGAPGQRVTISCTGSSSNIGAGYDVHWYQQLPGTAPKLLIYGNNNRPSGVPDRFSGSKSGTSASLAITGLQAEDEADYYCQSYDRSLSVVFGGGTKVTVL
B11: in assay [1], the dissociation constant Kd was determined as 0.489 nM. The Neutralization IC50 (RSV subtype A) in assay [2] is 0.04 µg/mL.

B12: ADI-36671 (antibody, V domains shown)
VH: EVQLLESGGGLVKPGGSLRLSCAASGFTFSGYYMTWIRQAPEKGLEWVSYISGGSTYTNYADSVRGRFTISRDNARNSLYLQMNSLRAEDTAVYYCARDGGYGIGPLYWGQGSLVTVSS
VL: QPVLTQPPSVSGAPGQRVTISCTGSSSNIGAPFDVHWYQQLPGTAPKPLIYGNSNRPSGVPDRFSGSKSGTSASLAITGLQAEDEADYYCQSYDSSLGGYVFGTGTKLTVL
In turn, B12 returned a Kd in assay [1] of 0.728 nM. The same molecule showed a Neutralization IC50 (RSV subtype A) in assay [2] of 0.01 µg/mL.

B13: ADI-41204 (antibody, V domains shown)
VH: EVQLLESGGGLVKPGGSLRLSCAASGFTFSSYSMNWVRQAPGKGLEWVSSISAGSSYIYYADSVKGRFTISRDNAKNSLYLQMNSLRAEDTAVYYCARVPSYETTPYFDYWGQGTLVTVSS
VL: QSVLTQPPSVSGAPGQRVTISCTGSSSNIGSGYDLHWYQQLPGTAPKLLIYVNSNRPSGVPDRFSGSKSGTSASLAITGLQAEDEADYYCQSYDSSLSGYVFGTGTKVTVL
The molecule B13 gave a Kd in assay [1] of 0.545 nM. Further, the Neutralization IC50 (RSV subtype A) in assay [2] came out at 0.06 µg/mL.

B14: ADI-41199 (antibody, V domains shown)
VH: QVQLVESGGGLVKPGGSLRLSCGASGFTFPDYYMSWIRQAPGKGLEWLSYISSSSSFTDYADSVKGRFTISRDNAKKSLYLQMNSLRAEDTAVYYCARVRADYVGNSRIHFDYWGQGTLVTVSS
VL: DIVMTQSPVTLSVSPGERATLSCRASQSLNGYLAWYQQKPGQAPRLLIYGASTRATEPGWDTSGRGSGTEFTLTISSLQSEDFAVYYCQQYNDWPFTFGQGTRLEIK
In the case of B14, the Kd in assay [1] worked out at 1.73 nM. The molecule further displayed a Neutralization IC50 (RSV subtype A) in assay [2] of 0.23 µg/mL.

B15: ADI-36680 (antibody, V domains shown)
VH: QVTLKESGAELRKPGESLKISCKASGYRFTNYWIGWVRQMPGKGLEWMGVIYPGDSDTKYSPSFQGQVTMSADKSINTAYLQWSSLKASDTAIYYCVSLFGDYDYGALDYWGQGTLVTVSS
VL: ETTLTQSPATLSMSPGERATLSCRASQSVGRNLAWYQQKPGQAPRLLIYGASIRATGILARFSGSGSGTEYTLTISSLQPEDFAVYYCQQYHDWPSFTFGPGTKVDIK
Molecule B15 returned a Kd in assay [1] of 0.719 nM. In assay [2], this molecule yielded a Neutralization IC50 (RSV subtype A) of 0.01 µg/mL.

B16: ADI-41165 (antibody, V domains shown)
VH: EVQLVETGAEVKKPGESLKISCKGSGYSFTSYWIGWVRQMPGKGLEWMGIIYPGDSDTRYSPSFQGQVTISADKSISTAYLQWSSLKASDTAMYYCARRYDYIDIWGQGTMVTVSS
VL: DIRVTQSPSSLSASVGDRVTITCQASQDISNYLNWYQQKPGKAPKLLIYDASNLETGVPSRFSGSGSGTDFTFTISSLQPEDIATYYCQQYDNLAHITFGPGTKVEIK
For the molecule B16, in assay [1], the Kd turned out to be 2.4 nM. In assay [2], this molecule showed a Neutralization IC50 (RSV subtype A) greater than 25 µg/mL.

B17: ADI-41198 (antibody, V domains shown)
VH: EVQLVQSGGVVIQPGGSLRLSCAASGFSFDEYLMHWVRQLPGKGLEWVALISWHGDITYYADSVKGRFTISRDNSRYSLYLQMNSLRSDDTALYYCVKDGWIEGAFNHTFGIGYYFENWGQGTLVTVSS
VL: DIVLTQTPSSLSASVGDRVTITCQASQDINNCLNWYQQKPGKAPEVLIFDASNLETGVPLRFSGSGSGTHFTLTISSLQPEDIATYYCQQHENVPLTFGGGTKVEIK
Regarding B17, in assay [1], the Kd came out at 0.756 nM. This molecule also showed a Neutralization IC50 (RSV subtype A) in assay [2] of 0.32 µg/mL.

B18: ADI-41168 (antibody, V domains shown)
VH: EVQLVETGGGVVQPGRSLRLSCAASGFTFSSYGMHWVRQAPGKGLEWVAVISYDGSNKYYADSVKGRFTISRDNSKNTLYLQMNSLRTEDTAVYYCAKGGGYYYYYMDVWGKGTTVTVSS
VL: QPVLTQPASVSGSPGQSITISCTGTSSDVGGYNYVSWYQQHPGKAPKLMIYGVNNRPSGVSNRFSGSKSGNTASLTISGLQGEDEADYYCNSYRSGITVVFGGGTKLTVL
In assay [1], B18 yielded a Kd of 133 nM. For the same molecule, the Neutralization IC50 (RSV subtype A) in assay [2] is greater than 25 µg/mL.

B19: ADI-36679 (antibody, V domains shown)
VH: QVQLVQSGAEVKKPGESLKISCKGSGYSFRSYWIAWVRQMPGKGLEWMGTIFPGDSDVTYSPSFQGQVTISVDKSTSTAYLQWGSLKASDTAIYYCARRYDYIDFWGQGTLVTVSS
VL: DIQMTQSPSSLSASVGDRVTITCQASQDIINHLNWYQQKPGKAPKLLIYDASNLHPGVPSRFSGSGSGTYFTFTISSLQPDDFATYYCQQYDFLAHITFGPGTKVDIK
Turning to B19, the Kd in assay [1] stood at 0.878 nM. Further, in assay [2], the Neutralization IC50 (RSV subtype A) turned out to be 0.01 µg/mL.

The term Kd denotes the constant that tells how readily two partners part at equilibrium. A lower Kd goes with tighter binding.
